Measurements taken from patent publication US20170218073A1 (HENLIX BIOTECH, published 2017).

Experiments:
[1] = target: T1, epidermal growth factor receptor (EGFR) (UniProt P00533 25-645, limits assumed); assay: kinetics, method not named for Table 6 (presumably SPR); against HLX05
[2] = target: T2, EGFR antigen produced in-house (UniProt P00533 25-645, limits assumed); assay: off-rate ELISA in wells coated with EGFR antigen produced in-house, A405
T2 construct: May be the same preparation as m1
Description: The 1-26 heavy chain was selected and used as the basis for generating CDR-H2 libraries for deletion of a glycosylation site. CDR-H2 nucleic acid libraries were generated via PCR, cloned into a phage display vector, and transformed into E. coli to produce a library of phages.

[3] = target: T1, epidermal growth factor receptor (EGFR); assay: kinetics, method not named for Table 6 (presumably SPR)
[4] = target: T1, epidermal growth factor receptor (EGFR); assay: kinetics of Table 6 (method not named, presumably SPR); lower end tied to 1-26/3-67 by Table 6 (2.2)
[5] = target: T1, epidermal growth factor receptor (EGFR); assay: SPR
[6] = target: T1, epidermal growth factor receptor (EGFR); assay: SPR; against HLX05
[7] = target: T3, EGFR-AP fusion protein (UniProt P00533 25-645); assay: competitive ELISA: antibody pre-mixed with biotinylated HLX05, EGFR-AP added, capture on avidin wells, pNPP, A405; competitor: biotinylated HLX05
T3 construct: treated as one molecule; also called Alkaline phosphatase-conjugated EGFR; not shown: alkaline phosphatase (AP) part
Procedure: Alkaline phosphatase-conjugated EGFR was then added to the pre-mixed solution and pre-incubated for 1 hour at room temperature. The preincubation mix was then added to mictotiter wells coated with avidin. Following a one-hour incubation, all wells were washed with PBST, and pNPP was added to each well. Following a second incubation at 37° C., the reaction was stopped.

B1: 1-26/3-67 (LC/HC) (antibody, V domains shown)
VH: EVQLVESGGGLVQPGGSLRLSCAASGFSLTNYGVHWVRQAPGKGLEWLGVIWSGGNTDYGNEFTSRFTISRDNAKNSLYLQMNSLRAEDTAVYYCARALDYYDYEFAYWGQGTMVTVSS
VL: EIVLTQSPATLSLSPGERATLSCRASQSIGTNIHWYQQKPGQAPRLLIKYASESISGIPARFSGSGSGTDFTLTISSLEPEDFAVYYCQQNNNWPTSFGGGTKVEIK
notes: also called HLX07; HLX07 1-26/3-67
Fold difference in KD [1]: 2.2 fold | EC50 (read off the curve) [2]: ~0.3 µg/mL | Kd [3]: 0.111 nM | koff [3]: 0.000995 s⁻¹ | kon [3]: 8.93e+06 M⁻¹ s⁻¹ | fold higher affinity than HLX05 [4]: 2 to 3 fold | Kd [5]: 0.109 nM | koff [5]: 0.000553 s⁻¹ | kon [5]: 5.09e+06 M⁻¹ s⁻¹ | Fold difference in KD [6]: 1.2 fold | IC50 (read off the curve) [7]: ~4 µg/mL
